From patent US20020086983

Assays:
[1] = molecular target: FLAME-1 (in vitro translated, 35S-labeled)
[2] = molecular target: FLAME-1-D341A (in vitro translated, 35S-labeled)

B1: caspase-7 (Mch3), purified recombinant (protein)
chain: AKPDRSSFVPSLFSKKKKNVTMRSIKTTRDRVPTYQYNMNFEKLGKCIIINNKNFDKVTGMGVRNGTDKDAEALFKCFRSLGFDVIVYNDCSCAKMQDLLKKASEEDHTNAACFACILLSHGEENVIYGKDGVTPIKDLTAHFRGDRCKTLLEKPKLFFIQACRGTELDDGIQADSGPINDTDANPRYKIPVEADFLFAYSTVPGYYSWRSPGRGSWFVQALCSILEEHGKDLEIMQILTRVNDRVARHFESQSDDPHFHEKKQIPCVVSMLTKELYFSQ
With B1 as the protein, how does the “cleavage of 35S-labeled FLAME-1 into p39 and p12 (SDS-PAGE, autoradiography)” value [1] read?
Its value is “in vitro translated FLAME-1 can be cleaved by several caspases including CPP32, Mch2, Mch3, Mch4, MchS and ICH-1 to generate two fragments (p39 and pl2)”.

B2: caspase-6 (Mch2), purified recombinant (protein)
chain: AFYKREMFDPAEKYKMDHRRRGIALIFNHERFFWHLTLPERRGTCADRDNLTRRFSDLGFEVKCFNDLKAEELLLKIHEVSTVSHADADCFVCVFLSHGEGNHIYAYDAKIEIQTLTGLFKGDKCHSLVGKPKIFIIQACRGNQHDVPVIPLDVVDNQTEKLDTNITEVDAASVYTLPAGADFLMCYSVAEGYYSHRETVNGSWYIQDLCEMLGKYGSSLEFTELLTLVNRKVSQRRVDFCKDPSAIGKKQVPCFASMLTKKLHFFPKSN
What does the source list for B2?
cleavage of 35S-labeled FLAME-1 into p39 and p12 (SDS-PAGE, autoradiography) [1]: in vitro translated FLAME-1 can be cleaved by several caspases including CPP32, Mch2, Mch3, Mch4, MchS and ICH-1 to generate two fragments (p39 and pl2); cleavage of 35S-labeled FLAME-1-D341A (SDS-PAGE, autoradiography) [2]: a D to A mutation in this site prevents these caspases from cleaving FLAME-1

B3: caspase-3 (CPP32), purified recombinant (protein)
chain: SGISLDNSYKMDYPEMGLCIIINNKNFHKSTGMTSRSGTDVDAANLRETFRNLKYEVRNKNDLTREEIVELMRDVSKEDHSKRSSFVCVLLSHGEEGIIFGTNGPVDLKKITNFFRGDRCRSLTGKPKLFIIQACRGTELDCGIETDSGVDDDMACHKIPVEADFLYAYSTAPGYYSWRNSKDGSWFIQSLCAMLKQYADKLEFMHILTRVNRKVATEFESFSFDATFHAKKQIPCIVSMLTKELYFYH
Which “cleavage of 35S-labeled FLAME-1 into p39 and p12 (SDS-PAGE, autoradiography)” value [1] does the source give for B3 here?
Its value is “in vitro translated FLAME-1 can be cleaved by several caspases including CPP32, Mch2, Mch3, Mch4, MchS and ICH-1 to generate two fragments (p39 and pl2)”.

B4: caspase-2 (ICH-1), purified recombinant (protein)
chain: GPVCLQVKPCTPEFYQTHFQLAYRLQSRPRGLALVLSNVHFTGEKELEFRSGGDVDHSTLVTLFKLLGYDVHVLCDQTAQEMQEKLQNFAQLPAHRVTDSCIVALLSHGVEGAIYGVDGKLLQLQEVFQLFDNANCPSLQNKPKMFFIQACRGDETDRGVDQQDGKNHAGSPGCEESDAGKEKLPKMRLPTRSDMICGYACLKGTAAMRNTKRGSWYIEALAQVFSERACDMHVADMLVKVNALIKDREGYAPGTEFHRCKEMSEYCSTLCRHLYLFPGHPPT
Which results are given for B4?
cleavage of 35S-labeled FLAME-1 into p39 and p12 (SDS-PAGE, autoradiography) [1]: in vitro translated FLAME-1 can be cleaved by several caspases including CPP32, Mch2, Mch3, Mch4, MchS and ICH-1 to generate two fragments (p39 and pl2); cleavage of 35S-labeled FLAME-1-D341A (SDS-PAGE, autoradiography) [2]: a D to A mutation in this site prevents these caspases from cleaving FLAME-1

B5: caspase-8 (Mch5), purified recombinant (protein)
chain: SESQTLDKVYQMKSKPRGYCLIINNHNFAKAREKVPKLHSIRDRNGTHLDAGALTTTFEELHFEIKPHDDCTVEQIYEILKIYQLMDHSNMDCFICCILSHGDKGIIYGTDGQEAPIYELTSQFTGLKCPSLAGKPKVFFIQACQGDNYQKGIPVETDSEEQPYLEMDLSSPQTRYIPDEADFLLGMATVNNCVSYRNPAEGTWYIQSLCQSLRERCPRGDDILTILTEVNYEVSNKDDKKNMGKQMPQPTFTLRKKLVFPSD
What does the source list for B5?
cleavage of 35S-labeled FLAME-1 into p39 and p12 (SDS-PAGE, autoradiography) [1]: in vitro translated FLAME-1 can be cleaved by several caspases including CPP32, Mch2, Mch3, Mch4, MchS and ICH-1 to generate two fragments (p39 and pl2); cleavage of 35S-labeled FLAME-1-D341A (SDS-PAGE, autoradiography) [2]: a D to A mutation in this site prevents these caspases from cleaving FLAME-1

B6: caspase-10 (Mch4), purified recombinant (protein)
chain: VKTFLEALPRAAVYRMNRNHRGLCVIVNNHSFTSLKDRQGTHKDAEILSHVFQWLGFTVHIHNNVTKVEMEMVLQKQKCNPAHADGDCFVFCILTHGRFGAVYSSDEALIPIREIMSHFTALQCPRLAEKPKLFFIQACQGEEIQPSVSIEADALNPEQAPTSLQDSIPAEADFLLGLATVPGYVSFRHVEEGSWYIQSLCNHLKKLVPRHEDILSILTAVNDDVSRRVDKQGTKKQMPQPAFTLRKKLVFPVPLDALSL
Which results are given for B6?
cleavage of 35S-labeled FLAME-1 into p39 and p12 (SDS-PAGE, autoradiography) [1]: in vitro translated FLAME-1 can be cleaved by several caspases including CPP32, Mch2, Mch3, Mch4, MchS and ICH-1 to generate two fragments (p39 and pl2); cleavage of 35S-labeled FLAME-1-D341A (SDS-PAGE, autoradiography) [2]: a D to A mutation in this site prevents these caspases from cleaving FLAME-1
